We go through one molecule from US20070022484A1 (published 2007).

The assay deals with C-terminal sRL91 (N-terminal SH2 domain SH2n of p85 subunit of bovine phosphatidylinositol 3-kinase fused … (bovine (SH2n part))). The experiment in a line: cell-based or functional assay.
Chain of C-terminal sRL91 (N-terminal SH2 domain SH2n of p85 subunit of bovine phosphatidylinositol 3-kinase fused … (bovine (SH2n part))) (chain, as listed by the source limits assumed): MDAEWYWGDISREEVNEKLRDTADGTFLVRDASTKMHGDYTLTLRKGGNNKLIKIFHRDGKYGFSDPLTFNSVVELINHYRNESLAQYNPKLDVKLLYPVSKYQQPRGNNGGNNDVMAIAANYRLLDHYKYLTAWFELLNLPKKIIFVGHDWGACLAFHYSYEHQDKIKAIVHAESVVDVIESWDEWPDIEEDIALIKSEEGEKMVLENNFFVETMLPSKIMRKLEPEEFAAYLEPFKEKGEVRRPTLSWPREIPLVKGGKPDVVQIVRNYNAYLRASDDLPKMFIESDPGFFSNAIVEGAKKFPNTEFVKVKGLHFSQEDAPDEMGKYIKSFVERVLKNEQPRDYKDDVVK

B1: N-terminal sRL91 (N-split Renilla luciferase hRLn, split between Ser91 and Tyr92, fused through a linker to Y941 peptide, with Myc epitope) (other, not shown: small tags and cut ends)
chain: MTSKVYDPEQRKRMITGPQWWARCKQMNVLDSFINYYDSEKHAENAVIFLHGNAASSYLWRHVVPHIEPVARCIIPDLIGMGKSGKSGNGSCLSLASNNGNGRNGASLETEEAYMKMDLGPG
modifications: the 941-tyrosine residue of the Y941 peptide is phosphorylated by the insulin receptor upon insulin stimulation
Turning to B1, the “luminescence activity with 10^-7 M insulin against its absence (split Renilla luciferase complementation, CHO-HIR cells expressing sRL91)” value was 25 fold.
